Read-outs that look alike come from different tables or passages of the source. Positions of bridges follow the written chain, without caps; N, C: chain ends. Non-standard residues stand in square brackets, D forms with d. Phe(4-Br) = N[C@@H](Cc1ccc(Br)cc1)C(=O)O; dPhe(4-Br) = N[C@H](Cc1ccc(Br)cc1)C(=O)O; dPhe(4-I) = N[C@H](Cc1ccc(I)cc1)C(=O)O; d(hPhe) = N[C@H](CCc1ccccc1)C(=O)O; NMeR = CN[C@@H](CCCNC(=N)N)C(=O)O; Cit = NC(=O)NCCC[C@H](N)C(=O)O; Nle = CCCC[C@H](N)C(=O)O
How the values were obtained:
Assay in all cases: cell-based or functional assay
[1] = molecular target: T1, human MC4R receptor (human, UniProt P32245 1-332)
[2] = molecular target: T2, human MC3R (human, UniProt P41968 1-323)
[3] = molecular target: T1, human MC4R receptor; remark: listed apart in the source
[4] = molecular target: T2, human MC3R; remark: listed apart in the source
[5] = molecular target: T1, human MC4R receptor; remark: listed apart in the source
[6] = molecular target: T1, human MC4R receptor; remark: listed apart in the source

T1 sequence (P32245 whole entry): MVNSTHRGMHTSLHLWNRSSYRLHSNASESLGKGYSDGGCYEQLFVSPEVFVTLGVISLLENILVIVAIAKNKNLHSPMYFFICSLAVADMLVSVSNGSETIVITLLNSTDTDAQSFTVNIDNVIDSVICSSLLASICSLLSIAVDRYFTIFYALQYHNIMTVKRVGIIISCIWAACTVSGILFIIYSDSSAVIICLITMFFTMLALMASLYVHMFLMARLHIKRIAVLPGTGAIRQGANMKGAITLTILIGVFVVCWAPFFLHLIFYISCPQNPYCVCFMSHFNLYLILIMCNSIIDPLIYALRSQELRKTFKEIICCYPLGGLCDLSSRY
T2 sequence (P41968 whole entry): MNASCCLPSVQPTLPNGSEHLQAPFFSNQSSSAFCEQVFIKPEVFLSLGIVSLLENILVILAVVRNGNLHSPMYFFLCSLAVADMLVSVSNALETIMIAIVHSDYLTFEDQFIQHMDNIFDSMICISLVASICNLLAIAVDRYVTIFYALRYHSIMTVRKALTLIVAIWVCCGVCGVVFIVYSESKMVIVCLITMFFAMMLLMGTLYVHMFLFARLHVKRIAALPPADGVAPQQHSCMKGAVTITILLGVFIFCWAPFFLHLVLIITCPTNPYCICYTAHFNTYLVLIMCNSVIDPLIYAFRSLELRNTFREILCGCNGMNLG

Row | Binder | % max activation [4] | cAMP EC50 [4] | % max activation [5] | cAMP EC50 [5] | MC4R selectivity vs MC1R [6] | MC4R selectivity vs MC3R [6] | other results
1 | Ac-RC[dA][Cit][dF]R[dW]C-NH2 (disulfide 2-8) [CTX-1286] |  |  |  |  |  |  | % max activation [1]: 91%; cAMP EC50 [1]: 262 nM; % max activation [2]: 24%; cAMP EC50 [2]: 568 nM; MC4R selectivity vs MC1R [3]: 3.4; MC4R selectivity vs MC3R [3]: 2.16
2 | Ac-[Nle]CH[dPhe(4-I)]R[dW]C-NH2 (disulfide 2-7; SMILES CCCC[C@H](NC(C)=O)C(=O)N[C@H]1CSSC[C@@H](C(N)=O)NC(=O)[C@@H](Cc2c[nH]c3ccccc23)NC(=O)[C@H](CCCNC(=N)N)NC(=O)[C@@H](Cc2ccc(I)cc2)NC(=O)[C@H](Cc2c[nH]cn2)NC1=O) [CTX-1234] | 18% | 3.4 nM |  |  |  |  | 
3 | Ac-RC[dA]R[dPhe(4-Br)]R[dW]CKP-NH2 (disulfide 2-8; SMILES CC(=O)N[C@@H](CCCNC(=N)N)C(=O)N[C@H]1CSSC[C@@H](C(=O)N[C@@H](CCCCN)C(=O)N2CCC[C@H]2C(N)=O)NC(=O)[C@@H](Cc2c[nH]c3ccccc23)NC(=O)[C@H](CCCNC(=N)N)NC(=O)[C@@H](Cc2ccc(Br)cc2)NC(=O)[C@H](CCCNC(=N)N)NC(=O)[C@@H](C)NC1=O) [CTX-1217] | 13% | 4 nM | 69% | 1.5 nM | 1.12 | 2.73 | 
4 | Ac-RC[dA]R[d(hPhe)]R[dW]C-NH2 (disulfide 2-8; SMILES CC(=O)N[C@@H](CCCNC(=N)N)C(=O)N[C@H]1CSSC[C@@H](C(N)=O)NC(=O)[C@@H](Cc2c[nH]c3ccccc23)NC(=O)[C@H](CCCNC(=N)N)NC(=O)[C@@H](CCc2ccccc2)NC(=O)[C@H](CCCNC(=N)N)NC(=O)[C@@H](C)NC1=O) [CTX-1239] |  | 74 nM |  | 249 nM |  |  | 
5 | Ac-R[Nle]CH[dPhe(4-Br)]RWC-NH2 (disulfide 3-8; SMILES CCCC[C@H](NC(=O)[C@H](CCCNC(=N)N)NC(C)=O)C(=O)N[C@H]1CSSC[C@@H](C(N)=O)NC(=O)[C@H](Cc2c[nH]c3ccccc23)NC(=O)[C@H](CCCNC(=N)N)NC(=O)[C@@H](Cc2ccc(Br)cc2)NC(=O)[C@H](Cc2c[nH]cn2)NC1=O) [CTX-1229] | 16% | 3.5 nM | 31% | 18 nM |  |  | 
6 | Ac-R[Nle]CR[dPhe(4-Br)]R[dW]C-NH2 (disulfide 3-8; SMILES CCCC[C@H](NC(=O)[C@H](CCCNC(=N)N)NC(C)=O)C(=O)N[C@H]1CSSC[C@@H](C(N)=O)NC(=O)[C@@H](Cc2c[nH]c3ccccc23)NC(=O)[C@H](CCCNC(=N)N)NC(=O)[C@@H](Cc2ccc(Br)cc2)NC(=O)[C@H](CCCNC(=N)N)NC1=O) [CTX-1613] |  | 4 nM |  | 1.9 nM |  |  | 
7 | Ac-RC[dA]R[dPhe(4-Br)]R[dW]CRFG-OH (disulfide 2-8; SMILES CC(=O)N[C@@H](CCCNC(=N)N)C(=O)N[C@H]1CSSC[C@@H](C(=O)N[C@@H](CCCNC(=N)N)C(=O)N[C@@H](Cc2ccccc2)C(=O)NCC(=O)O)NC(=O)[C@@H](Cc2c[nH]c3ccccc23)NC(=O)[C@H](CCCNC(=N)N)NC(=O)[C@@H](Cc2ccc(Br)cc2)NC(=O)[C@H](CCCNC(=N)N)NC(=O)[C@@H](C)NC1=O) [CTX-1219] | 20% | 4.5 nM | 76% | 2.3 nM | 1 | 1.99 | 
8 | Ac-RC[dA]R[dPhe(4-Br)]R[dW]CKPV-NH2 (disulfide 2-8; SMILES CC(=O)N[C@@H](CCCNC(=N)N)C(=O)N[C@H]1CSSC[C@@H](C(=O)N[C@@H](CCCCN)C(=O)N2CCC[C@H]2C(=O)N[C@H](C(N)=O)C(C)C)NC(=O)[C@@H](Cc2c[nH]c3ccccc23)NC(=O)[C@H](CCCNC(=N)N)NC(=O)[C@@H](Cc2ccc(Br)cc2)NC(=O)[C@H](CCCNC(=N)N)NC(=O)[C@@H](C)NC1=O) [CTX-1216] | 11% | 3.5 nM |  |  |  |  | 
9 | Ac-RC[dA]R[dPhe(4-Br)]R[dW]CK-NH2 (disulfide 2-8; SMILES CC(=O)N[C@@H](CCCNC(=N)N)C(=O)N[C@H]1CSSC[C@@H](C(=O)N[C@@H](CCCCN)C(N)=O)NC(=O)[C@@H](Cc2c[nH]c3ccccc23)NC(=O)[C@H](CCCNC(=N)N)NC(=O)[C@@H](Cc2ccc(Br)cc2)NC(=O)[C@H](CCCNC(=N)N)NC(=O)[C@@H](C)NC1=O) [CTX-1218] | 16% |  | 77% |  | 1 | 1.85 | 
10 | Ac-RC[dA]R[Phe(4-Br)]RWC-NH2 (disulfide 2-8) [CTX-1212] | 0.1% | 28 nM | 55% | 393 nM | 0.07 | 0.07 | 
11 | Ac-R[Nle]CR[dPhe(4-Br)]RWC-NH2 (disulfide 3-8; SMILES CCCC[C@H](NC(=O)[C@H](CCCNC(=N)N)NC(C)=O)C(=O)N[C@H]1CSSC[C@@H](C(N)=O)NC(=O)[C@H](Cc2c[nH]c3ccccc23)NC(=O)[C@H](CCCNC(=N)N)NC(=O)[C@@H](Cc2ccc(Br)cc2)NC(=O)[C@H](CCCNC(=N)N)NC1=O) [CTX-1612] |  | 4.5 nM |  | 2 nM |  |  | 
12 | Ac-R[Nle]CR[dPhe(4-Br)]R[dW]C-NH2 (disulfide 3-8; SMILES CCCC[C@H](NC(=O)[C@H](CCCNC(=N)N)NC(C)=O)C(=O)N[C@H]1CSSC[C@@H](C(N)=O)NC(=O)[C@@H](Cc2c[nH]c3ccccc23)NC(=O)[C@H](CCCNC(=N)N)NC(=O)[C@@H](Cc2ccc(Br)cc2)NC(=O)[C@H](CCCNC(=N)N)NC1=O) [CTX-1232] |  | 6 nM |  | 2.4 nM |  |  | 
13 | Ac-RCA[Cit][dF]RWC-NH2 (disulfide 2-8) [CTX-1287] |  |  |  |  |  |  | % max activation [1]: 94%; cAMP EC50 [1]: 0.77 nM; % max activation [2]: 43%; cAMP EC50 [2]: 50 nM; MC4R selectivity vs MC1R [3]: 281; MC4R selectivity vs MC3R [3]: 66
14 | Ac-R[Nle]CR[dPhe(4-Br)]RWC-NH2 (disulfide 3-8; SMILES CCCC[C@H](NC(=O)[C@H](CCCNC(=N)N)NC(C)=O)C(=O)N[C@H]1CSSC[C@@H](C(N)=O)NC(=O)[C@H](Cc2c[nH]c3ccccc23)NC(=O)[C@H](CCCNC(=N)N)NC(=O)[C@@H](Cc2ccc(Br)cc2)NC(=O)[C@H](CCCNC(=N)N)NC1=O) [CTX-1230] |  | 3.9 nM |  | 1.4 nM |  |  | 
15 | Ac-RC[dA]R[Phe(4-Br)]R[dW]C-NH2 (disulfide 2-8) [CTX-1215] | 2.1% | 27 nM | 56% | 592 nM | 0.07 | 0.05 | 
16 | Ac-RC[dA]R[dPhe(4-Br)]R[dW]CRF-NH2 (disulfide 2-8; SMILES CC(=O)N[C@@H](CCCNC(=N)N)C(=O)N[C@H]1CSSC[C@@H](C(=O)N[C@@H](CCCNC(=N)N)C(=O)N[C@@H](Cc2ccccc2)C(N)=O)NC(=O)[C@@H](Cc2c[nH]c3ccccc23)NC(=O)[C@H](CCCNC(=N)N)NC(=O)[C@@H](Cc2ccc(Br)cc2)NC(=O)[C@H](CCCNC(=N)N)NC(=O)[C@@H](C)NC1=O) [CTX-1220] | 21% | 7.2 nM | 76% | 1.87 nM | 1.53 | 3.82 | 
17 | Ac-RC[dA]R[dF][Cit][dW]C-NH2 (disulfide 2-8) [CTX-1281] |  |  |  |  |  |  | % max activation [1]: 92%; cAMP EC50 [1]: 97 nM; % max activation [2]: 44%; cAMP EC50 [2]: 28 nM; MC4R selectivity vs MC1R [3]: 0.44; MC4R selectivity vs MC3R [3]: 0.29
18 | Ac-RC[dA]R[d(hPhe)]R[dW]C-NH2 (disulfide 2-8) [CTX-1277] |  | 45 nM |  | 429 nM |  |  | 
19 | Ac-RC[dA]R[dPhe(4-Br)]R[dW]C-NH2 (disulfide 2-8) [CTX-1214] | 15% | 4.1 nM | 74% | 2.6 nM |  |  | 
20 | Ac-RC[dA]R[dF][NMeR][dW]C-NH2 (disulfide 2-8; SMILES CC(=O)N[C@@H](CCCNC(=N)N)C(=O)N[C@H]1CSSC[C@@H](C(N)=O)NC(=O)[C@@H](Cc2c[nH]c3ccccc23)NC(=O)[C@H](CCCNC(=N)N)N(C)C(=O)[C@@H](Cc2ccccc2)NC(=O)[C@H](CCCNC(=N)N)NC(=O)[C@@H](C)NC1=O) [CTX-1284] |  |  |  |  |  |  | % max activation [1]: 91%; cAMP EC50 [1]: 128 nM; % max activation [2]: 45%; cAMP EC50 [2]: 1040 nM; MC4R selectivity vs MC1R [3]: 0.15; MC4R selectivity vs MC3R [3]: 8.11

Source: patent US20240391954A1, “MC4R AGONIST PEPTIDES” (The Regents of the University of Michigan, priority 2021, published 2024)
